Source: publication PMC9167920

Target: CTSL-treated SARS-CoV-2 S protein ectodomain SR (cleaved at CS-1, T259/A260, and CS-2, Y636/S637) (SARS-CoV-2) (UniProt P0DTC2)
Experiment: cryo-EM structure

In the case of “CTSL-treated SARS-CoV-2 S protein ectodomain SR (cleaved at CS-1, T259/A260, and CS-2, Y636/S637) (from UniProt P0DTC2) (domain or fragment)”, the stoichiometry N is reported as 3.
